Measured values taken from ChEMBL document CHEMBL4476871, “SULFAMIDE AND SULFAMATE INHIBITORS OF hHint1” (2018).

Columns and labels:
[1] = compound: Nc1nc2c(ncn2[C@@H]2O[C@H](COP(=O)(O)NCCc3c[nH]c4ccccc34)[C@@H](O)[C@H]2O)c(=O)[nH]1; assay: (§1) Inhibition of full-length human N-terminal His6-tagged Hint1 expressed in Escherichia coli Rosetta 2 pLysS cells assessed as ratio of Kcat to Km
[2] = compound: Nc1ncnc2c1ncn2[C@@H]1O[C@H](COP(=O)(O)OC(=O)CCc2c[nH]c3ccccc23)[C@@H](O)[C@H]1O; assay: as §1

B1: Adenosine 5'-monophosphoramidase HINT1 (Homo sapiens), P49773 (protein)
chain: MADEIAKAQVARPGGDTIFGKIIRKEIPAKIIFEDDRCLAFHDISPQAPTHFLVIPKKHISQISVAEDDDESLLGHLMIVGKKCAADLGLNKGYRMVVNEGSDGGQSVYHVHLHVLGGRQMHWPPG
kcat/Km [1]: 1.1 ×10⁷ /M/s
kcat/Km [2]: 1.1 ×10⁷ /M/s
